Reference: article PMC8431788, “Characterization of Protocatechuate 4,5-Dioxygenase from Pseudarthrobacter phenanthrenivorans Sphe3 and In Situ Reaction Monitoring in the NMR Tube” (International Journal of Molecular Sciences, 2021)

Substrate: O=C(O)c1ccc(O)c(O)c1
Test: spectrophotometric CHMS formation, nonlinear Michaelis-Menten fit
Type: biochemical, Pseudarthrobacter phenanthrenivorans
Conditions: 100 mM glycine-NaOH pH 9.5, 20 °C, co-substrate O2, Fe(II)/L-ascorbate preincubation likely, not stated for the Km

B1: PcaA (PCA 4,5-dioxygenase) (Pseudarthrobacter phenanthrenivorans Sphe3) (protein)
chain: MTLDKPYNDVPGTTIFDADQARKGYNLNQFCMSLMKPENRERYLADRGAYLDEWPLNPVQRQAVLDIDLNTCIAEGGNIYFLAKIGATHGLSFQQMAGSMTGMSEAAYRDMMIGGGRRPEGNRLKDLDGWTPPEPGEKAETVRQDAPAQYTSALFTSHVPAIGAAMDLGKTEEPYWKKVFSGYEWTREWAKENLPDVVILVYNDHATAFDSSIIPTFVLGTGAEYPVADEGYGPRPVPDVKGYPELAAHIAQSVIQDDFDLTLVNEMVVDHGLTVPLSLVYGDVEEWPVRVIPLAVNVVQYPVPSGRRCYELGRALRRALDKWDGEPLNVQIWGTGGMSHQLQGPRAGLINEEWDNAFLDHLIADPVGLTEWQHMEYVDEAGSEGIELVDWLIARGAMDDQFGGESPEVNHRFYHVPASNTAVGHLVLTNQTD
notes: full-length single-subunit alpha-beta fusion from plasmid pASPHE302; 1302 bp amplicon NdeI/XhoI in pET29c(+), His-column purified from E. coli BL21(DE3); ~45 kDa on SDS-PAGE, predicted 48 kDa
  Km: 21 ± 1.6 µM
